Measured values reported in patent US10087225B2, “Formulation of MK2 inhibitor peptides” (MOERAE MATRIX, INC., priority 2015, dated 2018).

Assays:
Assay in all cases: Kinase Profiling Assay
Type in all cases: biochemical
Conditions in all cases: 100 μM
PKCθ(h) = PKCθ(h) (Homo sapiens, UniProt Q04759)
Lyn(h) = Lyn(h) (Homo sapiens, UniProt P07948)
Ros(h) = Ros(h) (Homo sapiens, UniProt P08922)
EphB3(h) = target: T1, EphB3(h) (Homo sapiens, UniProt P54753)
T1 sequence (P54753 34-998): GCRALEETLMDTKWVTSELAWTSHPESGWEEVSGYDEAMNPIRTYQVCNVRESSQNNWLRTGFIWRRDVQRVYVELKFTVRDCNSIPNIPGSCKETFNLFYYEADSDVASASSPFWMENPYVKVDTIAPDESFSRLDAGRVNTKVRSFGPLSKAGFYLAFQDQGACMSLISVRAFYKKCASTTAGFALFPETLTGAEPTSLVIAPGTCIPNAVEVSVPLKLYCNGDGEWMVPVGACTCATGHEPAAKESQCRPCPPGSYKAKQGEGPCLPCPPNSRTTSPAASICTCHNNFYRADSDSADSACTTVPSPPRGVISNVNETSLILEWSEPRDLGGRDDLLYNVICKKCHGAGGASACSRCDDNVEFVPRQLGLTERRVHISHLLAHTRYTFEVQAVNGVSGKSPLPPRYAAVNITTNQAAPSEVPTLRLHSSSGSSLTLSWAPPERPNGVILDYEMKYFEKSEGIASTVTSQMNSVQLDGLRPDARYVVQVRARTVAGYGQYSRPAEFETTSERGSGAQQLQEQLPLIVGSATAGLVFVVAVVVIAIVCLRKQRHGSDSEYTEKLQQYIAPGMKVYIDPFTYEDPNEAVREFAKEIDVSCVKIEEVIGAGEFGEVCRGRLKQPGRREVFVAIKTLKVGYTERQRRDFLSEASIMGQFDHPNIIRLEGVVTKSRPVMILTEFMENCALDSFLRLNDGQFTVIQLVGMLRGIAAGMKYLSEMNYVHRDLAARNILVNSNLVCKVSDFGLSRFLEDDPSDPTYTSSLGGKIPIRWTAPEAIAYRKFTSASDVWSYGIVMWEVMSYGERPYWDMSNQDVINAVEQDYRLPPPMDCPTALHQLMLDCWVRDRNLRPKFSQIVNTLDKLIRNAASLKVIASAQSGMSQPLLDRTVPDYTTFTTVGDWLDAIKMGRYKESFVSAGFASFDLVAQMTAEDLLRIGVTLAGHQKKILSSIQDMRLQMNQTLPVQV

TBK1(h) = target: T2, TBK1(h) (Homo sapiens, UniProt Q9UHD2)
T2 sequence (Q9UHD2 1-729): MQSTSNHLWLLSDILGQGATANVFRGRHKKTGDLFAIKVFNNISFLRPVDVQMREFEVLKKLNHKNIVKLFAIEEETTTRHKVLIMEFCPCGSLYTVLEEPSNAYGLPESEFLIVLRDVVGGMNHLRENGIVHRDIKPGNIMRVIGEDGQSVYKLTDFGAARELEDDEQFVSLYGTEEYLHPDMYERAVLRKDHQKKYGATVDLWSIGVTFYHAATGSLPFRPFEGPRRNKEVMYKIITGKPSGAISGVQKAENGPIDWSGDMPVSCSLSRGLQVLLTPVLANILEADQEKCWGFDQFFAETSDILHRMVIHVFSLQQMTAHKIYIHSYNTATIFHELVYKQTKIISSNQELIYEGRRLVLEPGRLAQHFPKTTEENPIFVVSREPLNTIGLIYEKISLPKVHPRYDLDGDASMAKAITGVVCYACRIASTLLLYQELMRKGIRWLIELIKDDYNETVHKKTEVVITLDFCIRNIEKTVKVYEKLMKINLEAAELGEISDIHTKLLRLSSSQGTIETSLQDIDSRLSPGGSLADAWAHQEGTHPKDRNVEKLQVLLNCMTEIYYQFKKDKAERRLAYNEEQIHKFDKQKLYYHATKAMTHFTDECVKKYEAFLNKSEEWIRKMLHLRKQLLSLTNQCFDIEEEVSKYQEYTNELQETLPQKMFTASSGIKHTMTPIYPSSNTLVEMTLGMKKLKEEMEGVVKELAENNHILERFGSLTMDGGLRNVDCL

NEK7(h) = NEK7(h) (Homo sapiens, UniProt Q8TDX7)
Chain of NEK7(h) (Q8TDX7 whole entry): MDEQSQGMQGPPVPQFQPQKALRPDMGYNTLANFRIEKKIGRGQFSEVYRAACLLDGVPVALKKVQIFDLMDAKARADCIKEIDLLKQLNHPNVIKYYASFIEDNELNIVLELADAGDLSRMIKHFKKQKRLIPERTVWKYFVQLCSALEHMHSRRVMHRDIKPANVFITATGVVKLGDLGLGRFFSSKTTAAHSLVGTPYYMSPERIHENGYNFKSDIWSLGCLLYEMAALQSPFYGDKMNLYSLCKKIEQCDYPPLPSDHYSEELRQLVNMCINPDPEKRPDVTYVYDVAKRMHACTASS

CaMKIδ(h) = CaMKIδ(h) (Homo sapiens, UniProt Q8IU85)
Chain of CaMKIδ(h) (Q8IU85 whole entry): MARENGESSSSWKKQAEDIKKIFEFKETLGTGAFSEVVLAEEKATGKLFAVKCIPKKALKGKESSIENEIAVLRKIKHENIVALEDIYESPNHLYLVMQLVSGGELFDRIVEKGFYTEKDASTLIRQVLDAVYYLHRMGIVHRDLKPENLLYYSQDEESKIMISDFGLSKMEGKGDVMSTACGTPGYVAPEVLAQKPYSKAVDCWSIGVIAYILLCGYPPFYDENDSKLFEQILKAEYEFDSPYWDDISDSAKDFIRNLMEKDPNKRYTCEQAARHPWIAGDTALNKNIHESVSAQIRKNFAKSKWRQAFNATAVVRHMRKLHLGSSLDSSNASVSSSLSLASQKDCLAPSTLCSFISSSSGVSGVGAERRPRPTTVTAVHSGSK

Pim-1(h) = Pim-1(h) (Homo sapiens, UniProt P11309)
Chain of Pim-1(h) (P11309 whole entry): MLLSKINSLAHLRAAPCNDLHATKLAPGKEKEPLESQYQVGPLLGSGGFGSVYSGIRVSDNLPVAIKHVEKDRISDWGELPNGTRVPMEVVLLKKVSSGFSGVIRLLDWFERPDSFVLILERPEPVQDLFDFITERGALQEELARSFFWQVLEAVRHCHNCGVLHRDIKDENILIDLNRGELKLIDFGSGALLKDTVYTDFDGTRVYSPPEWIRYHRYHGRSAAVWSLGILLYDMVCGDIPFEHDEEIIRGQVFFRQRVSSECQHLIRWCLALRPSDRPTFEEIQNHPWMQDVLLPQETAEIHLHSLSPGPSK

CDK5/p25(h) = CDK5/p25(h) (Homo sapiens, UniProt Q00535)
Chain of CDK5/p25(h) (Q00535 whole entry): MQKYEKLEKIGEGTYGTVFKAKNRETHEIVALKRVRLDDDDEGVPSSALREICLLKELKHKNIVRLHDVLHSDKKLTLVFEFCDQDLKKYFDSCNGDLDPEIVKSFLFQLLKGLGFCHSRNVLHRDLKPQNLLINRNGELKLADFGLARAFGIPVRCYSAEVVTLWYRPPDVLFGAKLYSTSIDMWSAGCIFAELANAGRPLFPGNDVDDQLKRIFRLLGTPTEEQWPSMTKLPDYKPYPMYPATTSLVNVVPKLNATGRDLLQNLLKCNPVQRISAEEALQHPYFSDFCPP
Chain of CDK5/p25(h) (Q15078 99-307 partner limits assumed): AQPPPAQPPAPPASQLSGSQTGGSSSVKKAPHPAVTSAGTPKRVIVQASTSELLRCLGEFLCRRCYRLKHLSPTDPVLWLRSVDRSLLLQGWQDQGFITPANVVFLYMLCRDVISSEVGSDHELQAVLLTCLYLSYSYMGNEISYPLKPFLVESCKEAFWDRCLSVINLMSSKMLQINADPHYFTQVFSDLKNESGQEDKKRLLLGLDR

Fer(h) = Fer(h) (Homo sapiens, UniProt P16591)
Chain of Fer(h) (P16591 whole entry): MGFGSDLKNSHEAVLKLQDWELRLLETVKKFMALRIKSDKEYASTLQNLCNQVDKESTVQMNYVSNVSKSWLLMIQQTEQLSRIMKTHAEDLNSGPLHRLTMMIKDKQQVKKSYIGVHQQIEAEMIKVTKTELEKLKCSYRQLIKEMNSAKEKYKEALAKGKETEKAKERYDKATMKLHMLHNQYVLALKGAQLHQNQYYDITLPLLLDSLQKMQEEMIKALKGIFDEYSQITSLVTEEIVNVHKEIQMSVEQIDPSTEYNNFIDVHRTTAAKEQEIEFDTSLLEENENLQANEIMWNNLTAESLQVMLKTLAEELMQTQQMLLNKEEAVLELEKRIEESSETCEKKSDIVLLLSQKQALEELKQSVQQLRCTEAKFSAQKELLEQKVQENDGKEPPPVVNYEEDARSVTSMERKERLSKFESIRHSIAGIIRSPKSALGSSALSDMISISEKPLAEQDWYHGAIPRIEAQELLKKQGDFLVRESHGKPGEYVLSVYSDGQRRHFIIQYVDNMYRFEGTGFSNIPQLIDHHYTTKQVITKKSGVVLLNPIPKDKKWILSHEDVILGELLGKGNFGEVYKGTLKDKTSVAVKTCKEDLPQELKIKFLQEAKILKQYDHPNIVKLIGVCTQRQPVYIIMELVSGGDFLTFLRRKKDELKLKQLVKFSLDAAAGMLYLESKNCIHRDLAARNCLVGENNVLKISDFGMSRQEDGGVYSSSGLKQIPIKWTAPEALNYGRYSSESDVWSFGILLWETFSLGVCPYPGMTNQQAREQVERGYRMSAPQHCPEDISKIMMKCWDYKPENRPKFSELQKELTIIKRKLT

PhKγ2(h) = target: T3, PhKγ2(h) (Homo sapiens, UniProt P15735)
T3 sequence (P15735 1-406): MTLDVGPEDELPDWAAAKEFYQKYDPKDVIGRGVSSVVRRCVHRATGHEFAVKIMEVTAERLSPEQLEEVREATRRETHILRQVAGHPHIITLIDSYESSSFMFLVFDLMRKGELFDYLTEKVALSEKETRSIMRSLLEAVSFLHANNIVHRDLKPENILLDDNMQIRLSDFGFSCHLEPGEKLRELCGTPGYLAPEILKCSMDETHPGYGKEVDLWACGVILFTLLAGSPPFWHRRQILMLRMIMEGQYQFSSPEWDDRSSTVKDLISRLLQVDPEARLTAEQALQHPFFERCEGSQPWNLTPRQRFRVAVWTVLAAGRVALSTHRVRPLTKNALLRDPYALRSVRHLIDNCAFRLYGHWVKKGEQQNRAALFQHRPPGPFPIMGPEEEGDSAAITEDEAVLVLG

Fes(h) = Fes(h) (Homo sapiens, UniProt P07332)
Chain of Fes(h) (P07332 whole entry): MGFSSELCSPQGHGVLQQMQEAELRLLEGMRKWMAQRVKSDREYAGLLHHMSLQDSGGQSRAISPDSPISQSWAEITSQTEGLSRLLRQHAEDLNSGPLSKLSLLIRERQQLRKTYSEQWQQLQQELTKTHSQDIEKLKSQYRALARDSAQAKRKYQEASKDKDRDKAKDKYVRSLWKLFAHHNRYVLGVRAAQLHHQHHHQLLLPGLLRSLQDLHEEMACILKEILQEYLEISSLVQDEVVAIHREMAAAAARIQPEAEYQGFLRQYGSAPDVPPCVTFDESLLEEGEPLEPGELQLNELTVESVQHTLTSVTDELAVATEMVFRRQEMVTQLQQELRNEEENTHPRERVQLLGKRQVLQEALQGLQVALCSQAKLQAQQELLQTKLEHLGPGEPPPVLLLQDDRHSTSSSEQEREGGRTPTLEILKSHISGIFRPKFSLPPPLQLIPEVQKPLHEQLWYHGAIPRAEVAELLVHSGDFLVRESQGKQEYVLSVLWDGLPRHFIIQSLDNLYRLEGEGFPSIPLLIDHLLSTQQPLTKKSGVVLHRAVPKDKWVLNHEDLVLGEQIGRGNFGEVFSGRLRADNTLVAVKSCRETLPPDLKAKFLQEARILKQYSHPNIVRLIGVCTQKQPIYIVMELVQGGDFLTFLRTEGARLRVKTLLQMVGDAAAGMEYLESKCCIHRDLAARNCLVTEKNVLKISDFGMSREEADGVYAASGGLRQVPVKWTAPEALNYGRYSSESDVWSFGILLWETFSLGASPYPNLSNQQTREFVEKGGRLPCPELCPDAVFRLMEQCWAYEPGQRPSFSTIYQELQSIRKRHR

Chain of Lyn(h) (P07948 whole entry): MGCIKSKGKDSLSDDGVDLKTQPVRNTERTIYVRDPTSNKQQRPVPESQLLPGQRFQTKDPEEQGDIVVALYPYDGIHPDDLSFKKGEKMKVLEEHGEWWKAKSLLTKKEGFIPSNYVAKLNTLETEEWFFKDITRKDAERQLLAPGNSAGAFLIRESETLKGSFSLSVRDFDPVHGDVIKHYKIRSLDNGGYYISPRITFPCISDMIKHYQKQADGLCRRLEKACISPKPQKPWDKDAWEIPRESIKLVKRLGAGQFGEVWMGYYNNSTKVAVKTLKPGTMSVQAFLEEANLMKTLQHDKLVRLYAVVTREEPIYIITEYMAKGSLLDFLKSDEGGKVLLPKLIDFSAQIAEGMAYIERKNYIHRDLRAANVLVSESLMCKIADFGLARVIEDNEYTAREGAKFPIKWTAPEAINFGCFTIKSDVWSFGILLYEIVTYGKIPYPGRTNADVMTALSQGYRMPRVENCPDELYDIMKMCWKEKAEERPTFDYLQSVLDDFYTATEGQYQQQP
Chain of PKCθ(h) (Q04759 whole entry): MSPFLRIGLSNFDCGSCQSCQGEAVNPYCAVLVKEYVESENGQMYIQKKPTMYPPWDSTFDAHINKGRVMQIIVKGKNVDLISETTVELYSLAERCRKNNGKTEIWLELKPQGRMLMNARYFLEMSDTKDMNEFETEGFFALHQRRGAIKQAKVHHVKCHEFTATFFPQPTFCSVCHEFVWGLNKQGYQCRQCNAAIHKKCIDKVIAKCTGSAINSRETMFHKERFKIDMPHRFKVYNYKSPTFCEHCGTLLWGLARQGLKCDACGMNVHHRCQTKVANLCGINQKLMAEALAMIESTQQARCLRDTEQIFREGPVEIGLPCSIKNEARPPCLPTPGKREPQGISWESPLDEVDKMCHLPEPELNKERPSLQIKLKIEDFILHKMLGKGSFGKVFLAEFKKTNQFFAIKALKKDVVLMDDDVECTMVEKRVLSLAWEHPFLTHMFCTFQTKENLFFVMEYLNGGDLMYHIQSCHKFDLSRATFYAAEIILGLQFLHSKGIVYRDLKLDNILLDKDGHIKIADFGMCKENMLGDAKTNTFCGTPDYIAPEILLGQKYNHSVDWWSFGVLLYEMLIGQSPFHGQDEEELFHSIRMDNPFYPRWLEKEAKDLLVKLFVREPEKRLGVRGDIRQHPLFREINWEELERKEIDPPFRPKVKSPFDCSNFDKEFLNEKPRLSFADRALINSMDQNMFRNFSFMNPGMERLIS

Sequence: YARAAARQARAKALNRQLGVA (Mammalian) [MMI-0200]
- % activity (PKCθ(h)): 101%
- % activity (Lyn(h)): 98%
- % activity (Ros(h)): 86%
- % activity (EphB3(h)): 128%
- % activity (TBK1(h)): 98%
- % activity (NEK7(h)): 96%
- % activity (CaMKIδ(h)): 47%
- % activity (Pim-1(h)): 18%
- % activity (CDK5/p25(h)): 97%
- % activity (Fer(h)): 101%
- % activity (PhKγ2(h)): 86%
- % activity (Fes(h)): 74%

Sequence: HRRIKAWLKKIKALARQLGVAA (Mammalian) [MMI-0500]
- % activity (PKCθ(h)): 62%
- % activity (Lyn(h)): 31%
- % activity (Ros(h)): 150%
- % activity (EphB3(h)): 79%
- % activity (TBK1(h)): 16%
- % activity (NEK7(h)): 89%
- % activity (CaMKIδ(h)): 0%
- % activity (Pim-1(h)): 0%
- % activity (CDK5/p25(h)): 66%
- % activity (Fer(h)): 196%
- % activity (PhKγ2(h)): 16%
- % activity (Fes(h)): 23%
